From the supplement of paper PMC7877785
± gives the uncertainty stated by the source.

Experiment: self-splicing fitness, log relative to wild type (ln ratio); higher = more splicing; Tetrahymena group I intron in knt gene, E. coli kanamycin selection, DiMSum; sequences stand for … in CUCUCU…GGAGGGAAAAGUUAUCAGGCAUGCACCUGGUAGCUAGUCUUUAAACCAAUAGAUUGCAUCGGUUUAAAAGGCAAGACCGUCAAAUUGCGGGAAAGGGGUCAACAGCCGUUCAGUACCAAGUCUCAGGGGAAACUUUGAGAUGGCCUUGCAAAGGGUAUGGUAAUAAGCUGACGGACAUGGUCCUAACCACGCAGCCAAGUCCUAAGUCAACAGAUCUUCUGUUGAUAUGGAUGCAGUUCACAGACUAAAUGUCGGUCGGGGAAGAUGUAUUCUUCUCAUAAGAUAUAGUCGGACCUCUCCUUAAUGGGAGCUAGCGGAUGAAGUGAUGCAACACUGGAGCCGCUGGGAACUAAUUUGUAUGCGAAAGUAUAUUGAUUAGUUUUGGAGUACUCGUGGUCG
Procedure, shortened: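 Pooled colonies went to amplicon sequencing on an Illumina HiSeq 2500 after six replicate transformations. The plates were LB agar with 100 μg/mL carbenicillin, 50 μM IPTG and 0.2% rhamnose, with or without 25 μg/mL kanamycin, incubated overnight at 37°C or 30°C. The E. coli BL21(DE3) library had all eight P1ex-region intron nucleotides randomised, the intron placed in the knt kanamycin-resistance gene on pET-22b(+). DiMSum fitness is the error-weighted combination of replicate fold changes, kanamycin against none, normalised to wild type.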

| Sequence | self-splicing fitness (ln) (30 °C) | self-splicing fitness (ln) (37 °C) |
| --- | --- | --- |
| CUGAAGCAAUAUUACGAGUG | 0.0379 ± 0.053 | 0.068 ± 0.084 |
| CCGCAGCAAUAUUACGUCUA | -1.79 ± 0.32 | -3 ± 0.3 |
| UACGAGCAAUAUUACGGCGC | -2.53 ± 0.29 | -2.4 ± 0.46 |
| UAUGAGCAAUAUUACGGGAU | -3.06 ± 0.21 | -2.35 ± 0.29 |
| GCGAAGCAAUAUUACGUAAG | -2.04 ± 0.11 | -1.41 ± 0.13 |
| GCGUAGCAAUAUUACGCCGU | -2.86 ± 0.26 | -3.17 ± 0.26 |
| GAGAAGCAAUAUUACGUUUG | -2.98 ± 0.11 | -1.85 ± 0.14 |
| UAUUAGCAAUAUUACGAGAU | – | -2.01 ± 0.34 |
| AUGGAGCAAUAUUACGGUGC | -2.99 ± 0.25 | – |
| GGCGAGCAAUAUUACGCUAA | -2.83 ± 0.32 | -1.02 ± 0.22 |
| CCUAAGCAAUAUUACGCAGA | – | -2.34 ± 0.37 |
| CUUGAGCAAUAUUACGCUGA | -2.33 ± 0.25 | -1.9 ± 0.23 |
| GACCAGCAAUAUUACGGGCA | -0.306 ± 0.078 | 0.16 ± 0.096 |
| UUGCAGCAAUAUUACGCGGG | -4.61 ± 0.39 | -2.03 ± 0.21 |
| UAGGAGCAAUAUUACGGAUA | -2.09 ± 0.29 | -1.46 ± 0.23 |
| UCGGAGCAAUAUUACGGGCA | -2.38 ± 0.16 | -0.971 ± 0.13 |
| AUGAAGCAAUAUUACGACAA | 0.158 ± 0.11 | 0.0912 ± 0.12 |
| CGAAAGCAAUAUUACGUGAC | -3.45 ± 0.12 | -2.22 ± 0.13 |
| UGUAAGCAAUAUUACGUGCA | -0.738 ± 0.12 | -0.62 ± 0.11 |
| AGCCAGCAAUAUUACGGUUG | -0.979 ± 0.051 | -0.86 ± 0.075 |
| UCUAAGCAAUAUUACGAUCC | -3.87 ± 0.39 | -2.5 ± 0.36 |
| CCAGAGCAAUAUUACGGGCC | -2.83 ± 0.22 | -2.55 ± 0.26 |
| ACUUAGCAAUAUUACGGUAG | -3.35 ± 0.23 | -1.83 ± 0.23 |
| CAGGAGCAAUAUUACGCCGC | -2.74 ± 0.25 | -1.58 ± 0.46 |
| AUCAAGCAAUAUUACGUAUA | -2.76 ± 0.23 | -2.31 ± 0.19 |
| GCCCAGCAAUAUUACGAUAA | -2.26 ± 0.11 | -1.57 ± 0.13 |

| Sequence | self-splicing fitness (ln) (30 °C) | self-splicing fitness (ln) (37 °C) |
| --- | --- | --- |
| CCGCAGCAAUAUUACGGACG | -2.13 ± 0.1 | -0.204 ± 0.11 |
| UUUCAGCAAUAUUACGACAG | -0.245 ± 0.089 | 0.886 ± 0.15 |
| GACAAGCAAUAUUACGCCAG | -3.1 ± 0.3 | – |
| UGGGAGCAAUAUUACGUAAA | -1.97 ± 0.36 | – |
| AAACAGCAAUAUUACGUCCU | -0.281 ± 0.07 | 0.347 ± 0.094 |
| ACAAAGCAAUAUUACGAGGU | -4.39 ± 0.2 | -2.78 ± 0.18 |
| GUAUAGCAAUAUUACGUCCG | -2.98 ± 0.18 | -1.21 ± 0.17 |
| UGAAAGCAAUAUUACGUGAG | -0.356 ± 0.06 | -0.158 ± 0.084 |
| AAAAAGCAAUAUUACGGAAC | -2.97 ± 0.16 | -1.77 ± 0.2 |
| GUUAAGCAAUAUUACGUUGU | -3.68 ± 0.16 | -2.28 ± 0.2 |
| CCCGAGCAAUAUUACGCCCU | – | -2.24 ± 0.33 |
| CCCCAGCAAUAUUACGGGCA | -2.57 ± 0.13 | -1.45 ± 0.11 |
| GCUCAGCAAUAUUACGUAGU | -0.46 ± 0.059 | -0.522 ± 0.075 |
| CUACAGCAAUAUUACGGUGG | -4.48 ± 0.21 | -2.71 ± 0.15 |
| ACGUAGCAAUAUUACGGACC | -1.21 ± 0.16 | -0.314 ± 0.2 |
| CCGUAGCAAUAUUACGGUUG | -3.89 ± 0.24 | -1.73 ± 0.19 |
| AUACAGCAAUAUUACGCACU | -0.66 ± 0.11 | 0.0538 ± 0.14 |
| CCUAAGCAAUAUUACGAACU | -3.44 ± 0.48 | -1.99 ± 0.22 |
| UUUUAGCAAUAUUACGAUCA | -0.641 ± 0.15 | -0.391 ± 0.17 |
| UGUAAGCAAUAUUACGGAUG | -0.704 ± 0.07 | -0.103 ± 0.095 |
| AACAAGCAAUAUUACGGAAA | -3.08 ± 0.15 | -1.34 ± 0.11 |
| GCUUAGCAAUAUUACGUCAG | -2.36 ± 0.22 | – |
| UGUCAGCAAUAUUACGUAAU | -1.03 ± 0.08 | -0.593 ± 0.089 |
| GCCGAGCAAUAUUACGAAAC | -2.15 ± 0.22 | -1.13 ± 0.17 |
| CCCGAGCAAUAUUACGAUCA | -2.79 ± 0.28 | -2.98 ± 0.33 |
| CGGUAGCAAUAUUACGAGAG | -3.4 ± 0.19 | -0.673 ± 0.11 |

| Sequence | self-splicing fitness (ln) (30 °C) | self-splicing fitness (ln) (37 °C) |
| --- | --- | --- |
| CUAUAGCAAUAUUACGGGGU | -4.1 ± 0.2 | -2.83 ± 0.28 |
| UACCAGCAAUAUUACGAAUU | -2.55 ± 0.17 | -1.96 ± 0.2 |
| UCACAGCAAUAUUACGACGG | -0.234 ± 0.066 | 0.353 ± 0.086 |
| UAAAAGCAAUAUUACGAGAU | -3.14 ± 0.13 | -2.98 ± 0.2 |
| GCCGAGCAAUAUUACGGAAU | -1.1 ± 0.09 | -0.698 ± 0.11 |
| CAACAGCAAUAUUACGCUAG | -3.53 ± 0.13 | -2.6 ± 0.14 |
| CAUUAGCAAUAUUACGAAAA | -2.21 ± 0.46 | -1.46 ± 0.45 |
| AUAUAGCAAUAUUACGUACG | -2.49 ± 0.2 | -0.317 ± 0.15 |
| AGGCAGCAAUAUUACGUCUG | -2.66 ± 0.15 | -1.51 ± 0.15 |
| CAUUAGCAAUAUUACGGUCA | -2.02 ± 0.3 | -1.63 ± 0.3 |
| GCGCAGCAAUAUUACGAAAC | -0.473 ± 0.16 | -0.354 ± 0.19 |
| CAUUAGCAAUAUUACGCGCA | -1.39 ± 0.16 | -1.52 ± 0.17 |
| GCUUAGCAAUAUUACGCUGU | -2.25 ± 0.18 | -1.25 ± 0.18 |
| UCCCAGCAAUAUUACGCAAA | -2.54 ± 0.18 | -0.641 ± 0.14 |
| ACUCAGCAAUAUUACGUAGU | -2.86 ± 0.13 | -1.35 ± 0.12 |
| AAGCAGCAAUAUUACGGAGG | -3.79 ± 0.19 | -2.53 ± 0.21 |
| UAAAAGCAAUAUUACGUUCU | -1.87 ± 0.14 | -1.13 ± 0.14 |
| GCCUAGCAAUAUUACGUCUU | -1.54 ± 0.098 | -1.68 ± 0.11 |
| CUGCAGCAAUAUUACGUUUG | -2.61 ± 0.094 | -0.958 ± 0.098 |
| ACCGAGCAAUAUUACGUCAG | -3.7 ± 0.16 | -2.73 ± 0.17 |
| ACUUAGCAAUAUUACGCGUU | -2.5 ± 0.12 | -2.05 ± 0.12 |
| GUCGAGCAAUAUUACGGGAC | -3.05 ± 0.22 | -2.05 ± 0.21 |
| UUCUAGCAAUAUUACGACGU | -1.89 ± 0.12 | -1.12 ± 0.1 |
| GCAGAGCAAUAUUACGACCU | – | -1.59 ± 0.42 |
| UGCAAGCAAUAUUACGGUCC | -1.81 ± 0.057 | -1.16 ± 0.084 |
| CACUAGCAAUAUUACGGCCC | – | -1.71 ± 0.46 |
